In patent US20110280900A1 (INTERVET INTERNATIONAL B V, published 2011):

Biological target: the molecule itself
Assay: immunoblot after non-denaturing gel; only the 65 kDa band detected

B1: Clostridium chauvoei toxin A (CctA), native secreted toxin in C. chauvoei culture supernatants (other)
chain: QENTCIVETPSEGVKTFTSSDTAYADYNCFKTNLSVTFIEDQHNNQLTALVSTEGSFIPSGLSRVGGYYQADMYWPSKYYTTLTTYDRNNRVKITKSIPTNQIDTVSVSETMGYSIGGSLSIEYGKEGPKAGGGINGSYTAQRSVTYDQPDYRTLLMKDSVNSASWEVAFNATKDGYDRDSYHGIYGNQLFMRYRLYNTGINNLTTDNNLSSLIVGGFSPKVVIALTAPKGTEESTVKVEYNRFNDQYRLRWSGTEWYGENNRNSRIDSSSESFILNWKNHTVEHAGY
notes: also called CctA toxin; mature CctA
Q: Does B1 bind?
A: Result: binds
